Source: US20160257748A1 (Amgen, published 2016)

What was measured:
folate receptor 1 [1] = target: T1, folate receptor 1 (human, UniProt P15328 25-234); assay: cell-based or functional assay
folate receptor 1 [2] = target: T1, folate receptor 1; assay: cell-based or functional assay; remark: listed apart in the source
[3] = target: T2, Human Epidermal Growth Factor Receptor (HER2) (human, UniProt P04626 23-1255); assay: FACS titration on T47D cells
T2 construct: whole, on cells; also called human epidermal growth factor 2

[4] = target: T2, Human Epidermal Growth Factor Receptor …; assay: cell-based or functional assay
[5] = target: T2, Human Epidermal Growth Factor Receptor …; assay: cell-based or functional assay; remark: listed apart in the source
[6] = target: T2, Human Epidermal Growth Factor Receptor …; assay: cell-based or functional assay; remark: listed apart in the source

T1 sequence (P15328 25-234): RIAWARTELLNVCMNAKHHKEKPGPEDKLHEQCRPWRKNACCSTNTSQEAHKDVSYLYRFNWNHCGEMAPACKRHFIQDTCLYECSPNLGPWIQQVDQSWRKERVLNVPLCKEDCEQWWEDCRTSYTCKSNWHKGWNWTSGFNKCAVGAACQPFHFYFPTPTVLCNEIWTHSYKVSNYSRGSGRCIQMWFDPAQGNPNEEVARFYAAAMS

B1: aFOLR1-Fc-aCD3 (bispecific antibody)
chain 1: QVQLQESGPGLVKPSQTLSLTCTVSGGSISSGAYYWTWIRQHPGKGLEWIGYIYYSGSTYYNPSLKSRVSISIDTSKNQFSLKLSSVTAADTAVYYCARGSSSWFDYWGQGTLVTVSSASTKGPSVFPLAPSSKSTSGGTAALGCLVKDYFPEPVTVSWNSGALTSGVHTFPAVLQSSGLYSLSSVVTVPSSSLGTQTYICNVNHKPSNTKVDKRVEPKSCDKTHTCPPCPAPEAAGGPSVFLFPPKPKDTLMISRTPEVTCVVVDVSHEDPEVKFNWYVDGVEVHNAKTKPREEQYNSTYRVVSVLTVLHQDWLNGKEYKCKVSNKALPAPIEKTISKAKGQPREPQVYTLPPSRKEMTKNQVSLTCLVKGFYPSDIAVEWESNGQPENNYKTTPPVLKSDGSFFLYSKLTVDKSRWQQGNVFSCSVMHEALHNHYTQKSLSLSPGKAAAGGGGSGGGGSEVQLVESGGGLVQPGGSLKLSCAASGFTFNSYAMNWVRQAPGKGLEWVARIRSKYNNYATYYADSVKGRFTISRDDSKNTAYLQMNNLKTEDTAVYYCVRHGNFGNSYVSWWAYWGQGTLVTVSSASTKGPSVFPLAPSSKSTSGGTAALGCLVKDYFPEPVTVSWNSGALTSGVHTFPAVLQSSGLYSLSSVVTVPSSSLGTQTYICNVNHKPSNTKVDKRVEPKSC
chain 2: not shown
For B1, the “EC50 (concentration for half maximal lysis), T cell dependent cytolysis of Cal-51 cells” value (folate receptor 1 [1]) was 0.114 nM, the “EC50 (concentration for half maximal lysis), T cell dependent cytolysis of T47D cells” value (folate receptor 1 [1]) was 0.105 nM and the “EC50 (pM), T cell dependent cytolysis of Cal-51 cells” value (folate receptor 1 [2]) was 60.9 pM.

B2: aCD3/HER2 heterodimer (bispecific antibody)
chain 1: EVQLVESGGGLVQPGGSLKLSCAASGFTFNSYAMNWVRQAPGKGLEWVARIRSKYNNYATYYADSVKGRFTISRDDSKNTAYLQMNNLKTEDTAVYYCVRHGNFGNSYVSWWAYWGQGTLVTVSSGGGGSGGGGSELVMTQTPSSLSASLGDRVTISCRASQDISNYLNWYQQKPDGTVKLLIYYTSRLHSGVPSRFSGSGSGTDYSLTISNLEQEDIATYFCQQGNTLPLTFGAGTKLEIKASTKGPSVFPLAPCSRSTSESTAALGCLVKDYFPEPVTVSWNSGALTSGVHTFPAVLQSSGLYSLSSVVTVPSSNFGTQTYTCNVDHKPSNTKVDKTVGGGGSAAAEPKSSDKTHTCPPCPAPEAAGGPSVFLFPPKPKDTLMISRTPEVTCVVVDVSHEDPEVKFNWYVDGVEVHNAKTKPREEQYNSTYRVVSVLTVLHQDWLNGKEYKCKVSNKALPAPIEKTISKAKGQPREPQVYTLPPSREEMTKNQVSLTCLVKGFYPSDIAVEWESNGQPENNYDTTPPVLDSDGSFFLYSDLTVDKSRWQQGNVFSCSVMHEALHNHYTQKSLSLSPGK
chain 2: not shown
notes: also called P136797.3; positive control heterodimeric antibody
B2: binds [3].

B3: aCD3-Fc-aFOLR1 (bispecific antibody)
chain 1: EVQLVESGGGLVQPGGSLKLSCAASGFTFNSYAMNWVRQAPGKGLEWVARIRSKYNNYATYYADSVKGRFTISRDDSKNTAYLQMNNLKTEDTAVYYCVRHGNFGNSYVSWWAYWGQGTLVTVSSASTKGPSVFPLAPSSKSTSGGTAALGCLVKDYFPEPVTVSWNSGALTSGVHTFPAVLQSSGLYSLSSVVTVPSSSLGTQTYICNVNHKPSNTKVDKRVEPKSCDKTHTCPPCPAPEAAGGPSVFLFPPKPKDTLMISRTPEVTCVVVDVSHEDPEVKFNWYVDGVEVHNAKTKPREEQYNSTYRVVSVLTVLHQDWLNGKEYKCKVSNKALPAPIEKTISKAKGQPREPQVYTLPPSRKEMTKNQVSLTCLVKGFYPSDIAVEWESNGQPENNYKTTPPVLKSDGSFFLYSKLTVDKSRWQQGNVFSCSVMHEALHNHYTQKSLSLSPGKAAAGGGGSGGGGSQVQLQESGPGLVKPSQTLSLTCTVSGGSISSGAYYWTWIRQHPGKGLEWIGYIYYSGSTYYNPSLKSRVSISIDTSKNQFSLKLSSVTAADTAVYYCARGSSSWFDYWGQGTLVTVSSASTKGPSVFPLAPSSKSTSGGTAALGCLVKDYFPEPVTVSWNSGALTSGVHTFPAVLQSSGLYSLSSVVTVPSSSLGTQTYICNVNHKPSNTKVDKRVEPKSC
chain 2: not shown
For B3, the “EC50 (pM), T cell dependent cytolysis of Cal-51 cells” value (folate receptor 1 [2]) was 306 pM.

B4: aCD3-Fc-aHER2 (bispecific antibody)
chain 1: EVQLVESGGGLVQPGGSLKLSCAASGFTFNSYAMNWVRQAPGKGLEWVARIRSKYNNYATYYADSVKGRFTISRDDSKNTAYLQMNNLKTEDTAVYYCVRHGNFGNSYVSWWAYWGQGTLVTVSSASTKGPSVFPLAPSSKSTSGGTAALGCLVKDYFPEPVTVSWNSGALTSGVHTFPAVLQSSGLYSLSSVVTVPSSSLGTQTYICNVNHKPSNTKVDKRVEPKSCDKTHTCPPCPAPEAAGGPSVFLFPPKPKDTLMISRTPEVTCVVVDVSHEDPEVKFNWYVDGVEVHNAKTKPREEQYNSTYRVVSVLTVLHQDWLNGKEYKCKVSNKALPAPIEKTISKAKGQPREPQVYTLPPSRKEMTKNQVSLTCLVKGFYPSDIAVEWESNGQPENNYKTTPPVLKSDGSFFLYSKLTVDKSRWQQGNVFSCSVMHEALHNHYTQKSLSLSPGKAAAGGGGSGGGGSEVQLLEQSGAELVRPGALVKLSCKASGFKIKDYFVNWVKQRPEQGLEWIGWIDPENDNSLYGPNFQDKASITADTSSNTGYLQLSGLTSEDTAVYYCALYYGSRGDAMDYWGQGTTVTVSSASTKGPSVFPLAPSSKSTSGGTAALGCLVKDYFPEPVTVSWNSGALTSGVHTFPAVLQSSGLYSLSSVVTVPSSSLGTQTYICNVNHKPSNTKVDKRVEPKSC
chain 2: not shown
B4 was tested, and the “EC50, T cell dependent cytolysis of JIMT-1 cells” value [4] was 0.0518 nM.

B5: aHER2-Fc-aCD3 (bispecific antibody)
chain 1: EVQLLEQSGAELVRPGALVKLSCKASGFKIKDYFVNWVKQRPEQGLEWIGWIDPENDNSLYGPNFQDKASITADTSSNTGYLQLSGLTSEDTAVYYCALYYGSRGDAMDYWGQGTTVTVSSASTKGPSVFPLAPSSKSTSGGTAALGCLVKDYFPEPVTVSWNSGALTSGVHTFPAVLQSSGLYSLSSVVTVPSSSLGTQTYICNVNHKPSNTKVDKRVEPKSCDKTHTCPPCPAPEAAGGPSVFLFPPKPKDTLMISRTPEVTCVVVDVSHEDPEVKFNWYVDGVEVHNAKTKPREEQYNSTYRVVSVLTVLHQDWLNGKEYKCKVSNKALPAPIEKTISKAKGQPREPQVYTLPPSRKEMTKNQVSLTCLVKGFYPSDIAVEWESNGQPENNYKTTPPVLKSDGSFFLYSKLTVDKSRWQQGNVFSCSVMHEALHNHYTQKSLSLSPGKAAAGGGGSGGGGSEVQLVESGGGLVQPGGSLKLSCAASGFTFNSYAMNWVRQAPGKGLEWVARIRSKYNNYATYYADSVKGRFTISRDDSKNTAYLQMNNLKTEDTAVYYCVRHGNFGNSYVSWWAYWGQGTLVTVSSASTKGPSVFPLAPSSKSTSGGTAALGCLVKDYFPEPVTVSWNSGALTSGVHTFPAVLQSSGLYSLSSVVTVPSSSLGTQTYICNVNHKPSNTKVDKRVEPKSC
chain 2: not shown
For B5, the “EC50, T cell dependent cytolysis of JIMT-1 cells” value [4] was 0.0565 nM, the “EC50 (pM), T cell dependent cytolysis of BT474 cells” value [5] was 638 pM and the “EC50 (pM), T cell dependent cytolysis of SKOV-3 cells” value [5] was 165 pM. For the same binder, the “EC50 (pM), % CD25+ T cells (with SKOV-3 cells)” value [6] was 79.3 pM and the “EC50 (pM), % of T cells that are dividing (with SKOV-3 cells)” value [6] was 76.7 pM.
